Measured values published in the supplement of paper PMC10567573.
± gives the standard deviation.

Assay: protein stability index of a GFP-peptide fusion (GPS, HEK-293T) (PSI 1-6); higher = more stable
Conditions: c terminus: a fixed tail appended
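Further: 24-mer peptide tiles fused after GFP, lentivirally expressed, FACS-sorted into six equal bins by GFP/DsRed ratio, decoded by Illumina sequencing, PSI is the read-weighted mean bin number.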

Sequence | protein stability index (treatment: DMSO) | protein stability index (treatment: MLN4924 1 uM, 8 h)
LARKNREELDKYWSQQIEESTTVV [KRT18] | 4.24 ± 0.13 | 4.12 ± 0.23
LHSGLVHGLAFWFDVAFIGSIMTV [CARM1] | 3.87 ± 0.46 | 3.56 ± 1.3
RDVYLPAGKWRSYKGELFDKTPVL [MYORG] | 2.32 ± 0.3 | 2.51 ± 0.18
PGLLGSMALSNHYRSEDLLDVDTA [FBXO3] | 4.24 ± 0.097 | 4.32 ± 0.24
MPGDTDDAFPVHRVMMASASDYFK [KLHL13] | 3.66 ± 0.35 | 3.6 ± 0.13
RESRGSTRGKRESESRGSSGRVKR [USP39] | 5.14 ± 0.32 | 5.24 ± 0.33
GAVLALVAIFIMSLNKRHSSGDGN [MFSD9] | 3 ± 0.21 | 3.43 ± 0.59
SCSQGSGILHYAHGDSQQTHLLKQ [CRY1] | 3.29 ± 0.16 | 3.31 ± 0.2
VILFSSAVYFAEAEEAESHFSSIP [KCNA1] | 2.37 ± 0.5 | 2.35 ± 0.29
PGGGAGMAAGFPYALRAYLGYQAV [CEBPB] | 2.71 ± 0.77 | 2.72 ± 0.41
LDVKSPPEPRSEVVPARLKRASAP [RIPK4] | 5.08 ± 0.49 | 5.11 ± 0.092
SNVKVETQSDEENGRACEMNGEEC [IKZF1] | 5.75 ± 0.27 | 5.25 ± 0.36
AELAETIVYARVLALHPEAPGLYN [CCDC3] | 1.99 ± 0.077 | 2.55 ± 0.2
LLVLLLYAPVGFCLLVLRLFLGIH [AUP1] | 2.21 ± 0.23 | 2.11 ± 0.2
LEADELCDDGGDGRGAVVPGAGLR [ZBTB22] | 5.18 ± 0.27 | 5.26 ± 0.17
GKSPVNMVTVAMVAGQCEFAHILH [ZNF649] | 2.63 ± 0.63 | 2.34 ± 0.62
PVLLLQITVGLVFLCLQYRLRGKL [MOG] | 3.23 ± 0.36 | 3.17 ± 0.25
WAMRRSYEAIAKHNQVEAAWLEGR [TRIM35] | 2.37 ± 0.12 | 2.73 ± 0.3
SRGGPPPPPPPPHNSGPPPPPARG [WASL] | 5.13 ± 0.26 | 5.07 ± 0.07
ELADARRALDDTARERAKLQIELG [LMNB1] | 4.72 ± 0.075 | 4.69 ± 0.15
SVSSCDQEHQSALEEAKQPKNDNV [SMOC2] | 5.38 ± 0.21 | 5.64 ± 0.082
SELTSLCQSVLEDFNLCLFYLPSS [SMG5] | 2.65 ± 0.64 | 2.42 ± 0.39
RFRFGQDQLLLATGLNNGRIKIWD [WSB1] | 2.25 ± 0.33 | 2.5 ± 0.32

Sequence | protein stability index (treatment: DMSO) | protein stability index (treatment: MLN4924 1 uM, 8 h)
SRGSRRRRRQRSEKKKAHYRQSSF [KCNA4] | 4.6 ± 0.29 | 4.8 ± 0.17
GVAGGLNRNQGLNRLMLAVRDMMA [TCF25] | 3.12 ± 0.38 | 3.02 ± 0.36
MSRRTRCEDLDELHYQDTDSDVPE [MYBL2] | 5.33 ± 0.2 | 5.59 ± 0.2
NGNSYICKCSEGFVLAEDGRRCKK [MATN2] | 3.75 ± 0.28 | 4.1 ± 0.19
EPPTEAASREENQAGPEATTSDPQ [PALM] | 5.61 ± 0.26 | 5.49 ± 0.3
QSGCLYRLRALGERHTMDLTVEGF [TMEM120A] | 2.12 ± 0.55 | 2.27 ± 0.2
LKLMVNVCGHTLCESCVDLLFVRG [MNAT1] | 3.35 ± 0.92 | 3.27 ± 0.44
FKKTAYELLDEKLLARGTMQPFNY [FEM1A] | 2.37 ± 0.46 | 2.61 ± 0.17
SGLGYIAGSKVKDMAGDWHWALRV [SPNS1] | 2.64 ± 0.74 | 2.38 ± 0.3
ECSYTSADGQRHHSKLLVSGFWGV [DHCR7] | 2.09 ± 0.1 | 2.17 ± 0.31
QNRYLDGMVRAHGVRVSVPCPSTT [BET1L] | 3.02 ± 0.37 | 3.21 ± 0.44
SLHKHLTIRLNISDVNDNAPRFNQ [PCDHGC5] | 2.32 ± 0.34 | 2.28 ± 0.27
DRHGVYGLQRNLLVENIIDIYKQE [TRIM63] | 3.2 ± 0.32 | 3.39 ± 0.24
AYVAMIPQCIKEEDTPSDNDSGIC [ATF4] | 4.25 ± 0.41 | 4.46 ± 0.26
TTTTFPMSNHTRERVTVAKLTLEN [STK38L] | 3.52 ± 0.26 | 3.5 ± 0.18
AHVNTLHSGTKRDPKEDVFQQNHL [PHTF1] | 4.31 ± 0.15 | 4.28 ± 0.18
EKQKQPRWREGTKDSHDPLPSWAE [PBXIP1] | 3.01 ± 0.51 | 3.18 ± 1.1
AQMSTLHVSPPPSADPARGLPRSR [PDLIM4] | 4.79 ± 0.2 | 4.86 ± 0.13
QENESLFTFLGKKCVTMSSAVVQL [WASL] | 2.29 ± 0.34 | 2.32 ± 0.039
GGSGPAGLRASTSDGILRGNGTGY [RHOBTB2] | 4.31 ± 0.27 | 4.24 ± 0.39
FEYPESSGPARVIAIVSVMVILIS [KCNA1] | 2.82 ± 0.47 | 2.87 ± 0.48
INVSKGINHLLKSPFSVHPKTGRI [PRIM1] | 2.62 ± 0.5 | 2.65 ± 0.37
KIDLENTLEQEQEALVNRLWKRMD [CCDC6] | 3.23 ± 0.41 | 3.78 ± 0.39

Sequence | protein stability index (treatment: DMSO) | protein stability index (treatment: MLN4924 1 uM, 8 h)
EIFRRHFRQLCYQETPGPREALTR [ZSCAN9] | 2.51 ± 0.17 | 2.76 ± 0.24
ELSLVTLFRCIQNMPETLPNNSCY [TNFSF13B] | 3.65 ± 1.3 | 2.94 ± 0.5
LEGQSPPQSLPSTPKAAWIREEGR [PBXIP1] | 4.89 ± 0.26 | 4.76 ± 0.091
TDILPQMITLSEAYIQIWKRRDND [USP39] | 2.82 ± 0.25 | 2.79 ± 0.14
SPESESDHEHEEADLELSLPECLE [GNAS] | 5.4 ± 0.38 | 5.57 ± 0.26
DEDELRKSLSELVDDKFGTGTKKV [PSD2] | 5.2 ± 0.15 | 5.4 ± 0.21
LDHCANRVLMYGSELDADHPGFKD [TPH1] | 4.62 ± 0.27 | 4.81 ± 0.057
PGGRPEVIYNYVQRPFIRMSWEKE [BTBD10] | 3.06 ± 0.41 | 3.21 ± 0.43
LKMKEREEAWVKIENLAKANPQYT [PPP2R5C] | 3.4 ± 0.22 | 3.56 ± 0.19
AAFYKGYVPNMLGIIPYAGIDLAV [SLC25A25] | 2.78 ± 0.45 | 3.31 ± 0.57
RENSSDSPKELKRRNSSSSMSSRL [DLC1] | 5.13 ± 0.23 | 5.05 ± 0.3
SMPQKFLGDKGLSDTPYDSSASYE [IKZF1] | 4.74 ± 0.088 | 4.73 ± 0.34
LDLSSSSQMSPLSLYGENSNSLSS [ATF6] | 4.01 ± 0.19 | 3.92 ± 0.26
ARQAACCVARPGTPSLLRFALASL [ZSWIM9] | 2.33 ± 0.17 | 2.43 ± 0.32
NFAVQHRYLFEEDNLLRSTQKLSH [MATN2] | 2.97 ± 0.24 | 2.85 ± 0.27
GEAQPGLPQEDPSTSQGCAQPQGA [FEM1A] | 5.36 ± 0.21 | 5.51 ± 0.13
AGGHPAQLGLGRGASTFKEEPQTV [JUNB] | 4.511 ± 0.035 | 4.58 ± 0.32
FIENNVSKLSLLLNDISRKSEGLS [TRIP13] | 2.39 ± 0.35 | 2.33 ± 0.26
RRSISSSRSENVLSRLSLMAMPNG [PSD2] | 3.54 ± 0.17 | 3.56 ± 0.19
ERAPTATFHDSKHNIVHVHFDATR [WDFY2] | 3.34 ± 0.17 | 3.33 ± 0.29
ILHMNGSQSSTYRGTYEQDGRFEK [ZNF396] | 2.86 ± 0.41 | 3.36 ± 0.14
LGLDDFESLKVIGRGAFGEVRLVQ [STK38L] | 3.55 ± 0.58 | 3.38 ± 0.33
TASSLVKINLQGDIVDRGSTNLGV [ADD1] | 3.36 ± 0.68 | 3.36 ± 0.25

Sequence | protein stability index (treatment: DMSO) | protein stability index (treatment: MLN4924 1 uM, 8 h)
PQKASPNGSISSAGNSSRNSSQSS [BTBD10] | 5.04 ± 0.24 | 4.96 ± 0.13
DISMEIPQEFQKTVSTMYYLWMCS [SCAMP3] | 2.28 ± 0.54 | 2.38 ± 0.39
PVTICCGHSFCRPCLCLSWEEAQS [TRIM43] | 2.61 ± 0.35 | 2.95 ± 0.36
SSSKRYTMSRSLDGASVNENHEIY [EPB41L3] | 4.11 ± 0.63 | 4 ± 0.45
YWRYDEYKRSMDPGYPKMIAHDFP [MMP1] | 2.29 ± 0.22 | 2.18 ± 0.49
SLSEALDLIESDPDAWCDLSKFDL [MYBL2] | 3.61 ± 0.23 | 4.13 ± 0.56
QCQEAEQARAELTAQHQRRLAAIA [FBF1] | 4.34 ± 0.05 | 4.28 ± 0.15
HGGSLLGKKYNWSCDDLMGGGGLH [GFOD1] | 2.73 ± 0.28 | 2.95 ± 0.27
AALHGLEETKKLANKYLVEDVLLL [KLHL14] | 2.42 ± 0.22 | 2.55 ± 0.56
KKIYCRICMAQIAYSGNTSNLSYH [ZBED1] | 2.19 ± 0.28 | 2.13 ± 0.3
NGATDDSKTNLIVNYLPQNMTQDE [ELAVL3] | 5.08 ± 0.29 | 5.21 ± 0.041
AGPAGTGTPSLLRGKRGGHATNYR [EMID1] | 4.72 ± 0.49 | 4.59 ± 0.22
FLRSLRQMKQKVQSLYQEVFGRLR [NFE2L1] | 2.41 ± 0.59 | 1.7 ± 0.43
FSEIISSISDVKFSHSGRYIMTRD [PPP2R2B] | 2.52 ± 0.28 | 2.53 ± 0.29
RILQEKLDQPVSAPPSPRDISMEI [CCDC6] | 3.68 ± 0.33 | 3.87 ± 0.25
FTTSILRHWCMKHDELLAEHIKSL [INTS3] | 2.22 ± 0.2 | 2.17 ± 0.18
LRKQLQPTHCKYEGPRKARRLWFA | 2.43 ± 0.089 | 2.07 ± 0.25
SPMSAATLGGLNPSPSEVITPWTP [SMTNL2] | 4.44 ± 0.18 | 4.46 ± 0.28
VISCTIFIVGMVGNATLLRIIYQN [EDNRA] | 3.11 ± 0.14 | 2.29 ± 0.12
DLKLRKFVFSTEERTQLRLESLED [TRIB1] | 3.74 ± 0.1 | 4.2 ± 0.43
FKKGNRYIRCQKEVGKSFERHKLK [SMG5] | 2.75 ± 0.23 | 2.85 ± 0.14
